Consider two substances from paper doi:10.1101/2023.08.18.553786.

The target of assay [1] is CDTb^D623A/D734A, active Ca^2+-binding mutant of CDTb (Clostridioides difficile). As to the kind of experiment: cryo-EM structure.
Assay [2] concerns the target CDTb, the cell-binding component of the C. difficile binary toxin (CDT), active wild type (Clostridioides difficile). As to the kind of experiment: cryo-EM structure.

As for “CDTb^D623A/D734A, active Ca^2+-binding mutant of CDTb (natural protein)”, the stoichiometry N (as a rule, the number of molecules, sites or subunits per partner or assembly) in assay [1] was determined as 7.

As to “CDTb, the cell-binding component of the C. difficile binary toxin (CDT), active wild type (natural protein)”, the stoichiometry N in assay [2] came out at 7.
